Source: article PMC10663602
Values belong to the binder of their own block, whether it stands above or below them.

What was measured:
[1] = molecular target: hFcα-tFcµ-chi1 (human | Oncorhynchus mykiss (rainbow trout)); experiment: SEC; preparative SEC (Superose 6 Increase 10/300) after Ni-NTA; share of pIg and mIg in the total protein purified (Supplementary Fig. 6)
[2] = molecular target: hFcα-tFcµ-chi2 (human | Oncorhynchus mykiss (rainbow trout)); experiment: as above

percent of the total protein purified that is pIg [1]: < 30%
B1: hFcα-tFcµ-chi1 (protein)
chain: CHPRLSLHRPALEDLLLGSEANLTCTLTGLRDASGVTFTWTPSSGKSAVQGPPERDLCGCYSVSSVLPGCAEPWNHGKTFTCTAAYPESKTPLTATLSKSGNTFRPEVHLLPPPSEELALNELVTLTCLARGFSPKDVLVRWLQGSQELPREKYLTWASRQEPSQGTTTFAVTSILRVAAEDWKKGDTFSCMVGHEALPLAFTNIIMRTIDRTSNQPNLVNLSLNVPQRCMAQ
modifications: here or on the partner: N-glycosylated; polymeric, about a dimer by SEC-MALS. Table prints the same sequence for chi1 and chi2 / N-glycosylated; polymeric, about a dimer by SEC-MALS. Table prints the same sequence for chi1 a

percent of the total protein purified that is pIg [2]: < 30%
B2: hFcα-tFcµ-chi2 (protein)
chain: B1 chain
modifications: here or on the partner: N-glycosylated; P1 about a tetramer, P2 monomer. Table prints the same sequence for chi1 and chi2 / N-glycosylated; P1 about a tetramer, P2 monomer. Table prints the same sequence for chi1 and chi2
